From US20020147999A1 (J DAVID GLADSTONE INSTITUTES, published 2002)

Target: apoE cleavage enzyme (chymotrypsin-like serine protease; in mouse brain lysate or roughly/partially purified)
Assay: cell-based or functional assay

| inhibition of apoE cleavage enzyme activity (chromogenic assay, 1 mM Ala-Ala-Pro-Phe-p-nitroanilide; 6 mM peptide; 20 hour incubation) | Binder |
| --- | --- |
| 56% | AAPL [Ala-Ala-Pro-Leu (SEQ ID NO:3)] |
| 67% | AAPF [Ala-Ala-Pro-Phe (SEQ ID NO:1)] |
| 58% | AAAAPF [Ala-Ala-Ala-Ala-Pro-Phe (SEQ ID NO:4)] |
